Results reported in patent US20250115677A1, “Anti-CEA Antibody Drug Conjugates and Methods of Use” (BeiGene Switzerland GmbH, priority 2022, published 2025).
Positions count from the first letter of the chain named. Names and notes keep the numbering of the source.

Columns and labels:
[1] = target: T1, huCEA surface protein (LOVO cells) (Homo sapiens, UniProt P06731); test: Flow cytometry binding of affinity matured humanized BGA7592 variants to LOVO cells
T1 construct: host or cells: LOVO
T1 sequence (P06731 35-676): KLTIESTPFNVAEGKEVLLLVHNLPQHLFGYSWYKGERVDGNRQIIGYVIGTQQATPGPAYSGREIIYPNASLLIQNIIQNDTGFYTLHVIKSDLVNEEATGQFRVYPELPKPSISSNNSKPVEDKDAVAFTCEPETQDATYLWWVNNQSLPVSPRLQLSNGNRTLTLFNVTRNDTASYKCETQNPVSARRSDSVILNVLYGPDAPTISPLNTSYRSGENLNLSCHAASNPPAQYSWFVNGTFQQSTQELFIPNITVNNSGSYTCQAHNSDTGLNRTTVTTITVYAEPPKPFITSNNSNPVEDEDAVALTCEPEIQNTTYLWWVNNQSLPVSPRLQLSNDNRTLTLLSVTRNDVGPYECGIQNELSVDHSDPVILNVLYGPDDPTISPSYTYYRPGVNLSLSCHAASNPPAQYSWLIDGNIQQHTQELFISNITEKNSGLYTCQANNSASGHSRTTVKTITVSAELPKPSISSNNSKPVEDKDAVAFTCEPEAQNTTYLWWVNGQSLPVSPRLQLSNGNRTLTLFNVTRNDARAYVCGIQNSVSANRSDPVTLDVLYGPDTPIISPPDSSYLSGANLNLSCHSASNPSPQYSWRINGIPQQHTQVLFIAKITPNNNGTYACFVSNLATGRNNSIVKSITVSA
Procedure: (§1) Affinity comparison of BGA7592-1F (BGA5366) and other affinity matured clones was made by SPR assay (Table 9) using BIAcore™ T-200 (GE Life Sciences) and flow cytometry (FIG. 7). For this experiment, anti-human IgG (Fc) antibody was immobilized on an activated CM5 biosensor chip (Cat. No. BR100839, GE Life Sciences). Anti-CEA antibodies were flowed over the chip surface and captured by anti-human Fab antibody. Then a serial dilution (1.37 nM to 333 nM) of CHIM was flowed over the chip surface and changes in surface plasmon resonance signals were analyzed to calculate the association rates (kon) and dissociation rates (koff) by using the one-to-one Langmuir binding model (BIA Evaluation Software, GE Life Sciences). For flow cytometry, CEA-expressing cells (10′ cells/well) were incubated with various concentrations of purified affinity-matured antibodies, followed by binding with Alexa Fluro-647-labeled anti-hu IgG Fc antibody (Cat. No. 409320, BioLegend, USA). Cell fluorescence was quantified using a flow cytometer (Guava easyCyte™ 8HT, Merck-Millipore, USA). The equilibrium dissociation constant (KD) was calculated as the ratio koff/kon.

CHIM [2] = target: T2, CHIM (Homo sapiens, UniProt P06731, A174T/A211G/A239V/A261S/A267P/C12H/D173N/E253A/E283V/F203L/F272R/F277P/F63I/H123Q/H61N/H9C/I100T/I112V/I113T/I13V/I230T/I80V/INS244IISP/K155N/K214E/L18V/L245P/L62R/N182G/N204S/N246D/N288K/P266S/P287A/Q16K/Q78L/R139H/R17E/R198M/R224N/R250L/R77S/S228P/S280H/T171V/T206K/T210A/T217I/T247S/T276I/V221A/V273I/V291P/V55A/W11L); test: SPR affinity comparison of affinity matured humanized BGA7592 variants on CHIM; type: binding; conditions: Table 9, SPR on CHIM
T2 construct: CEACAM6 N-terminal part (fusion partner); 6xHis (C); made in house; host or cells: HEK293-based mammalian cell expression system
T2 sequence (P06731 with tags, fused parts or gaps H9C/W11L/C12H/I13V/Q16K/R17E/L18V/V55A/H61N/L62R/F63I/R77S/Q78L/I80V/I100T/I112V/I113T/H123Q/R139H/K155N/T171V/D173N/A174T/N182G/R198M/F203L/N204S/T206K/T210A/A211G/K214E/T217I/V221A/R224N/S228P/I230T/A239V/INS244IISP/L245P/N246D/T247S/R250L/E253A/A261S/P266S/A267P/F272R/V273I/T276I/F277P/S280H/E283V/P287A/N288K/V291P): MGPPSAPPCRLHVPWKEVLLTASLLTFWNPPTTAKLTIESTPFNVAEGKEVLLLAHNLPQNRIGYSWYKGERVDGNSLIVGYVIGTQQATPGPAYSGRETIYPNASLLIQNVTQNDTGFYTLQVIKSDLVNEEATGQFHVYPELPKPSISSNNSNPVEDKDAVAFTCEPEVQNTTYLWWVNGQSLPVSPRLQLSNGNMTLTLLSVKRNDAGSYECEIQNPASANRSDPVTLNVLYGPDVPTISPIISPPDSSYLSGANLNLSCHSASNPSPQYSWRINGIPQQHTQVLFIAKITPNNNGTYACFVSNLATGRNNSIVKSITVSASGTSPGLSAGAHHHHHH
Procedure: as §1

CHIM [3] = target: T2, CHIM; test: as above; type: binding; conditions: Table 11, SPR to CHIM
CEA = target: T3, CEA (Homo sapiens, UniProt P06731); test: SPR affinity measurement of BGA6710 variants; type: binding; conditions: BGA6710 variants in IgG format
T3 construct: 6xHis (C)
T3 sequence (P06731 with tags, fused parts or gaps limits assumed): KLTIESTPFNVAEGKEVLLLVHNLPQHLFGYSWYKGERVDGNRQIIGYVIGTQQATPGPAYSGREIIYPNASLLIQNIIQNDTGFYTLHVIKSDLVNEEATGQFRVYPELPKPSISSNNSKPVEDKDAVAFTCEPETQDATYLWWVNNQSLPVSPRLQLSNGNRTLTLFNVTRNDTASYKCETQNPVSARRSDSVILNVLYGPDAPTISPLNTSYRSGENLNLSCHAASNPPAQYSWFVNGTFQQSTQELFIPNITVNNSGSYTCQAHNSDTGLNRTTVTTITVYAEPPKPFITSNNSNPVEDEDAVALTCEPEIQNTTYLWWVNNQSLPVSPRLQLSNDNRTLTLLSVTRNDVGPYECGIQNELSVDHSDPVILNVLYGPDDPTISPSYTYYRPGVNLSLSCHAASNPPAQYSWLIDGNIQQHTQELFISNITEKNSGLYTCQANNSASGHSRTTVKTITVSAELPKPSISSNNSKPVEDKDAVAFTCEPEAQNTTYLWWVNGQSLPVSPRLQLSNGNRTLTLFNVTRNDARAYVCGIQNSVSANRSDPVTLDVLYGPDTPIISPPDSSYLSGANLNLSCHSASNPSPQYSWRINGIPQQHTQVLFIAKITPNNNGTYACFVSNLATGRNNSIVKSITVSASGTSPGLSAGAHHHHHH
Description: To further improve the biochemical/biophysical properties, optimization of BGA6710 was made by introducing substitutions in CDR and framework regions (Table 13). The large, hydrophobic residues were chosen and changed to polar residues, except for K13 and Q53, which are selected based on observed differences among human VH germlines. The considerations include amino acid compositions, heat stability (Tm), surface hydrophobicity and isoelectronic points (pIs) while maintaining functional activities. The variants were expressed in Fab format by cloning into the vector pCANTAB-5E as described in Example 6. The Fab-containing supernatants were then screened by ELISA and SPR analysis for CEA binding.
Thus, the BGA6710 variants in IgG format with single identified mutation or combinations were expressed and purified as described in Example 8.

B1: BGA7592-1F-ph-M (BGA2433): affinity matured clone of BGA7592-1F, "(SEQ ID NO:96)", "improved affinities to huCEA surface protein"; template for further engineering (protein)
chain: DIQMTQSPSSLSASVGDRVTITCRASENQYGYLAWYQQKPGKVPKLLIYNTKNLVEGVPSRFSGSGSGTDFTLTISSLQPEDVATYYCQHHLGTPYTFGQGTKVEIK
modifications: Synthetic: BGA7592-1F-ph-M VL
notes: template for further engineering
affinities to huCEA surface protein [1]: improved affinities
Ka (CHIM [2]): 2500 M⁻¹ s⁻¹
Rmax (CHIM [2]): 224 RU
Ka (CHIM [3]): 19700 M⁻¹ s⁻¹
Rmax (CHIM [3]): 97.2 RU

B2: L92E: BGA6710 variant in IgG format, L92E in the light chain, "slightly reduces the binding affinity to CEA" (antibody, V domains shown)
VH: QVQLVQSGAEVKKPGASVKVSCKASGYIFTSYYLHWVRQAPGQGLEWIGYINPQTGYTSYAQKFQGRVTMTRDTSTSTVYMELSSLRSEDTAVYYCAREYGNYNYPLDYWGQGTLVTVSS
VL: B1 chain with T51Y, L92E
Kinetics (huCEA) ka (CEA): 41700 M⁻¹ s⁻¹
Kinetics (huCEA) kd (CEA): 0.000188 s⁻¹
